Results on 2 substances are retold here after patent US20050113284A1, “Drug for regenerating tissue and vessel and method therefor” (priority 2001, published 2005).

One assay concerns the target T1, MERMUC bait protein (Homo sapiens, UniProt Q8N307).
T1 construct: Bait-2 corresponds to a 123 amino acid portion of the C-terminus (bait-2); expressed in transfected cells; host or cells: yeast AH109 strain (pGBKT7 bait vector)
T1 sequence (Q8N307 587-709): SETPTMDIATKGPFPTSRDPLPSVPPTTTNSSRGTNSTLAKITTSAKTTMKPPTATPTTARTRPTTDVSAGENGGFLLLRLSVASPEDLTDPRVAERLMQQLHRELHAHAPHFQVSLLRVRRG
The experiment in a line: Yeast two-hybrid binding of c-Met prey deletion proteins to MERMUC bait-2. The note with it: yeast growth on SD/-Leu,-Trp,-His and SD/-Leu,-Trp,-Ade; human MERMUC bait-2. Here is the method:
The present invention was performed using the reported yeast two-hybrid system (Proc. Natl. Acad. Sci. USA., 1991, Vol. 88, p.9578-9582) based on conventional method and the experimental protocols appended to the reagents.
PCR was performed using DNA (clone No. 3-309) corresponding to the 91 amino acids (amino acids 993-1083 of SEQ ID NO: 4) of the C-terminal region of the human HGF receptor c-Met β chain that was identified in the previous Example to have the binding ability to the cytoplasmic region of human MERMUC as a template. […]
The binding activity between the c-Met prey proteins derived from the 7 DNA fragments and the MERMUC bait protein was analyzed by the yeast two-hybrid system described in Example 1. Specifically, the binding activity was evaluated based on the growth of yeast transformed with the vector on 2 kinds of yeast minimum media, i.e., (1) SD/-Leu, -Trp, -His media and (2) SD/-Leu, -Trp, -Ade media.

The target of assay [1] is T2, HGF receptor c-Met β chain (Homo sapiens, UniProt P08581).
T2 construct: expressed in transfected cells; host or cells: yeast AH109 strain (library prey plasmid, human kidney cDNA library, CLONTECH)
As to the kind of experiment: Yeast two-hybrid binding of MERMUC bait proteins to c-Met prey (C-terminal 91 amino acids). The settings on record: prey clone No. 3-309 (C-terminal 91 amino acids of human c-Met). As to the method:
The present examination was performed using the previously reported yeast two-hybrid system (references are described above) according to conventional method and the experimental protocols provided with the reagents. […]
The binding ability of MERMUC bait protein derived from each of the bait vectors to the HGF receptor c-Met β chain was analyzed by the yeast two-hybrid system described above. […]
Each of the bait vectors was cointroduced into yeast AH109 strain with human HGF receptor c-Met prey vector (comprising DNA encoding the C-terminal 91 amino acids of the c-Met; Example 1). The binding ability of each of the bait proteins (randomly selected 10 amino acids of the human MERMUC C-terminal region) to the C-terminal region of human c-Met β chain was analyzed by the yeast two-hybrid system similar to the aforementioned Example.

T2 sequence (P08581 1300-1390): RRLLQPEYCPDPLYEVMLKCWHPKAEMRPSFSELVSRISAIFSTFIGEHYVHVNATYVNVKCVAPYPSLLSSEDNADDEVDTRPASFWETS

As for “prey DNA G: c-Met prey protein, amino acids 993-1043 of SEQ ID NO: 4 (RRLLQPEYCPDPLYEVMLKCWHPKAEMRPSFSELVSRISAIFSTFIGEHYV; listed as Homo sapiens)”, the “binding activity with MERMUC bait protein” value with MERMUC bait protein was “− (no binding)”.

Turning to “C53: MERMUC bait protein, C-terminal 53 amino acids of C260; amino acids 451-503 of SEQ ID NO: 10 (GENGGFLLLRLSVASPEDLTDPRVAERLMQQLHRELHAHAPHFQVSLLRVRRG; listed as Homo sapiens)”, the “binding activity to the HGF receptor c-Met β chain” value in assay [1] was “possessed the binding activity”.
